Key:
PDLoneECDHisCtag [1] = target: T1, PDLoneECDHisCtag (human, UniProt Q9NZQ7 19-238); assay: BLI cross-block, second antibody on PDLoneECDHisCtag held by immobilised 516; plain = non-blocking
T1 construct: Expressed in HEK-293F cells; theoretical molecular weight 29 kDa; also called recombinant human PD-L1 ECD; human PD-L1 (BLI); not shown: C-terminal His-tag; C-tag
Protocol: (§1) Antibody cross-block testing was performed using biolayer interferometry (BLI) on an Octet HTX instrument (ForteBio). Antibodies (20 μg/ml in 10 mM sodium acetate buffer pH 6.0 (ForteBio)) were immobilized on Amine-Reactive 2nd Generation (AR2G) biosensors (ForteBio) according to the instructions of the manufacturer. After a baseline (50 s) in Sample Diluent (ForteBio), biosensors containing immobilized antibodies were loaded for 500 s with PDLoneECDHisCtag (100 nM or 2.7 μg/ml), after which the association response of a second antibody (10 μg/ml) was followed for 500 s. Biosensors were regenerated by using 3 times 5 s alternating exposures to 10 mM glycine pH 2.5 and Sample Diluent. The experiment was repeated with a new set of second antibodies starting from the baseline step. Each biosensor was used 6 times. The experiment was performed at 30° C. using a shaker speed of 1000 rpm. Data was analyzed using Data Analysis Software v9.0.0.12 (ForteBio). The Y-axis was aligned to the association step and Savitzky-Golay filtering was applied. The average buffer response was subtracted from the association response of the second antibody in order to correct for the dissociation of PDLoneECDHisCtag from the immobilized antibody. The corrected association responses were plotted in a matrix format.

PDLoneECDHisCtag [2] = target: T1, PDLoneECDHisCtag; assay: BLI cross-block, second antibody on PDLoneECDHisCtag held by immobilised 321; bold = blocking
Protocol: as §1

PDLoneECDHisCtag [3] = target: T1, PDLoneECDHisCtag; assay: BLI cross-block, second antibody on PDLoneECDHisCtag held by immobilised MEDI; bold = blocking
Protocol: as §1

PDLoneECDHisCtag [4] = target: T1, PDLoneECDHisCtag; assay: BLI cross-block, second antibody on PDLoneECDHisCtag held by immobilised 632; plain = non-blocking
Protocol: as §1

PDLoneECDHisCtag [5] = target: T1, PDLoneECDHisCtag; assay: BLI cross-block, second antibody on PDLoneECDHisCtag held by immobilised 547; bold = blocking
Protocol: as §1

PDLoneECDHisCtag [6] = target: T1, PDLoneECDHisCtag; assay: BLI cross-block, second antibody on PDLoneECDHisCtag held by immobilised MPDL; bold = blocking
Protocol: as §1

PDLoneECDHisCtag [7] = target: T1, PDLoneECDHisCtag; assay: BLI cross-block, second antibody on PDLoneECDHisCtag held by immobilised 511-LC33S; bold = blocking
Protocol: as §1

PDLoneECDHisCtag [8] = target: T1, PDLoneECDHisCtag; assay: BLI cross-block, second antibody on PDLoneECDHisCtag held by immobilised 421-LC91S; bold = blocking
Protocol: as §1

PDLoneECDHisCtag [9] = target: T1, PDLoneECDHisCtag; assay: BLI cross-block, second antibody on PDLoneECDHisCtag held by immobilised 338; bold = blocking
Protocol: as §1

PDLoneECDHisCtag [10] = target: T1, PDLoneECDHisCtag; assay: BLI cross-block, second antibody on PDLoneECDHisCtag held by immobilised 547; plain = non-blocking
Protocol: as §1

PDLoneECDHisCtag [11] = target: T1, PDLoneECDHisCtag; assay: BLI cross-block, second antibody on PDLoneECDHisCtag held by immobilised 632; bold = blocking
Protocol: as §1

PDLoneECDHisCtag [12] = target: T1, PDLoneECDHisCtag; assay: BLI cross-block, second antibody on PDLoneECDHisCtag held by immobilised 421-LC91S; plain = non-blocking
Protocol: as §1

PDLoneECDHisCtag [13] = target: T1, PDLoneECDHisCtag; assay: BLI cross-block, second antibody on PDLoneECDHisCtag held by immobilised 476-N101Q-LC33S; bold = blocking
Protocol: as §1

[14] = target: T2, cynomolgus monkey PD-L1 (full length, on CHO cells) (cynomolgus monkey (Macaca fascicularis), UniProt G7PSE7 19-290); assay: flow cytometry on CHO cells transfected with cynomolgus PD-L1, PE anti-human IgG secondary, MFI (PE)
T2 construct: whole, on cells; also called PDL1 Mf; cynomolgus PD-L1
T2 sequence (G7PSE7 entry or part of it): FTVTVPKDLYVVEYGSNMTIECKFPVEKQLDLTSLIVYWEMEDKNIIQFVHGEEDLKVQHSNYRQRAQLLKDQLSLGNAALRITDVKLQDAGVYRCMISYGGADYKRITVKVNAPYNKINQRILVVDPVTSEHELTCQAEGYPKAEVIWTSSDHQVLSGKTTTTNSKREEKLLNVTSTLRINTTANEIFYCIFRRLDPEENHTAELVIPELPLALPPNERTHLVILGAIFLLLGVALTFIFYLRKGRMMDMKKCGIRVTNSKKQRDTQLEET
Protocol: (§2) Cells (3-5×10⁴ cells/well) were incubated in polystyrene 96-well round-bottom plates (Greiner bio-one, cat. no. 650101) with serial dilutions of antibodies (range 0.0001 to 10 μg/mL in 5-fold dilution steps) in 50 μL PBS/0.1% BSA/0.02% azide (staining buffer) at 4° C. for 30 min.
(§3) After washing twice in staining buffer, cells were incubated in 50 μL secondary antibody at 4° C. for 30 min. As a secondary antibody, R-Phycoerythrin (PE)-conjugated goat-anti-human IgG F(ab′)₂ (Cat. no. 109-116-098, Jackson ImmunoResearch Laboratories, Inc., West Grove, Pa.) diluted 1:500 in staining buffer, was used for all experiments. Next, cells were washed twice in staining buffer, re-suspended in 20 μL staining buffer and analyzed on an iQue screener (Intellicyt Corporation, USA). Binding curves were analyzed using non-linear regression (sigmoidal dose-response with variable slope) using GraphPad Prism V75.04 software (GraphPad Software, San Diego, Calif., USA).
Binding to CHO cells expressing cynomolgus PD-L1 was determined by flow cytometry using a method as described above.

[15] = target: T3, human PD-L2 (full length, on CHO cells) (human, UniProt Q9BQ51 20-273); assay: flow cytometry on CHO cells expressing human PD-L2
T3 construct: whole, on cells; also called CHO-PD-L2 cells
T3 sequence (looked up): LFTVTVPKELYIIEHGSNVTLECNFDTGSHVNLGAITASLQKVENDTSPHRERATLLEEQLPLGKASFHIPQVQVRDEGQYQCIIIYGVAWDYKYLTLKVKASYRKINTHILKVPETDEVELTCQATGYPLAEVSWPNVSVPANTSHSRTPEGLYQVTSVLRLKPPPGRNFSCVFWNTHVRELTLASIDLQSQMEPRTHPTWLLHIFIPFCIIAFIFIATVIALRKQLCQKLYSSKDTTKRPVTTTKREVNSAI
Protocol: as §2, §3
A PE-conjugated PD-L2 specific antibody (Mylteni, clone MIH18; cat. no. 130-098-651) was used as positive control.

[16] = target: T4, human PD-L1 (full length, on cells) (human, UniProt Q9NZQ7 19-290); assay: flow cytometry on MDA-MB-231 cells, PE anti-human IgG secondary, MFI (PE)
T4 construct: The entry holds the signal peptide; also called CD274; B7H1
T4 sequence (Q9NZQ7 19-290 limits assumed): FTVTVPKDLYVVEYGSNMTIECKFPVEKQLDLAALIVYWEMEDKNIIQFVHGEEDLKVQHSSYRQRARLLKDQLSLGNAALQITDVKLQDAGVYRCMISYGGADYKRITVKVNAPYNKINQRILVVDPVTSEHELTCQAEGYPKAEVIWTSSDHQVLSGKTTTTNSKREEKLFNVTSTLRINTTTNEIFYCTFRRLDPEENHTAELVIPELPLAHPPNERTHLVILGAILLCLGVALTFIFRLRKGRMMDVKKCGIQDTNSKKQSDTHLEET
Protocol: as §2, §3

PDLoneECDHisCtag [17] = target: T1, PDLoneECDHisCtag; assay: BLI cross-block, second antibody on PDLoneECDHisCtag held by immobilised 476-N101Q-LC33S; plain = non-blocking
Protocol: as §1

PDLoneECDHisCtag [18] = target: T1, PDLoneECDHisCtag; assay: BLI cross-block, second antibody on PDLoneECDHisCtag held by immobilised 511-LC33S; plain = non-blocking
Protocol: as §1

PDLoneECDHisCtag [19] = target: T1, PDLoneECDHisCtag; assay: BLI cross-block, second antibody on PDLoneECDHisCtag held by immobilised 516; bold = blocking
Protocol: as §1

T1 sequence (Q9NZQ7 19-238, form in doubt): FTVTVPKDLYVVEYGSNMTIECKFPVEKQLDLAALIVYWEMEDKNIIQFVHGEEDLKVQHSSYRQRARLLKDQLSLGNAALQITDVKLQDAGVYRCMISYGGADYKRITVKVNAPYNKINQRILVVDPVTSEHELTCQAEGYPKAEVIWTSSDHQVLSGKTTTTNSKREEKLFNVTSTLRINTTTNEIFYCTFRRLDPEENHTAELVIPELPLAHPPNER

B1: IgG1-321-FEAR (antibody, V domains shown)
VH: EVQLVESGGGLVQPGGSLRLSCAASGFTFSSYWMSWVRQAPGKGLEWVANIKQDGNEKYYVDSVKGRFTISRDNAKNSLYVQMNSLRAEDTAVYYCARDLYYGSGTYPPFDYWGQGTLVTVSS
VL: DIQMTQSPSTLSASVGDRVTITCRASQSISSWLAWYLQKPGKAPKLLIYKASSLESGVPSRFSGSGSGTEFTLTISSLQPDDFATYYCQQYHSSSYTFGQGTKLEIK
PDLoneECDHisCtag [1]
  association response of the second antibody: 1.1 nm
PDLoneECDHisCtag [2]
  association response of the second antibody: 0 nm
PDLoneECDHisCtag [3]
  association response of the second antibody: 0 nm
PDLoneECDHisCtag [4]
  association response of the second antibody: 0.6 nm
PDLoneECDHisCtag [5]
  association response of the second antibody: 0 nm
PDLoneECDHisCtag [6]
  association response of the second antibody: 0 nm
PDLoneECDHisCtag [7]
  association response of the second antibody: 0 nm
PDLoneECDHisCtag [8]
  association response of the second antibody: -0.1 nm
PDLoneECDHisCtag [9]
  association response of the second antibody: 0 nm

B2: IgG1-476-N101Q-LC33S-FEAR (antibody, V domains shown)
VH: EVQMLESGGGLVQPGGSLRLSCAASGFTFRSYAMSWVRQAPGKGLEWVSGIGDSGGSTYHADSVKGRFTISRDNSKNTLYLQMNSLRAEDTAVYYCAKLGQSSGWYDHYYYYGMDVWGQGTTVTVSS
VL: SYELTQPPSVSVSPGQTASITCSGDKLGNKYVSWFQQKPGQSPVLVIYRDSERPSGIPERFSGSNSGNTATLTISGTQAVDEADFYCQAWDSSTVVFGGGTKLTVL
PDLoneECDHisCtag [1]
  association response of the second antibody: 1.2 nm
PDLoneECDHisCtag [10]
  association response of the second antibody: 0.8 nm
PDLoneECDHisCtag [11]
  association response of the second antibody: 0 nm
PDLoneECDHisCtag [12]
  association response of the second antibody: 0.4 nm
PDLoneECDHisCtag [13]
  association response of the second antibody: 0 nm
PDLoneECDHisCtag [7]
  association response of the second antibody: 0 nm

B3: bsIgG1-huCD3-H1L1-FEAL×511-LC33S-FEAR (bispecific antibody)
heavy 1: not shown
VL: not shown
heavy 2: QVQLVQSGSELKKPGASVMVSCKASGYTFTSYVMNWVRQAPGQGLEWMGWINSYTGNPTSAQGFTGRFVFSFDTSVNTAYLQISSLKAEDTAVYYCARGYCTSTSCYLDYWGQGTLVTVSSASTKGPSVFPLAPSSKSTSGGTAALGCLVKDYFPEPVTVSWNSGALTSGVHTFPAVLQSSGLYSLSSVVTVPSSSLGTQTYICNVNHKPSNTKVDKRVEPKSCDKTHTCPPCPAPEFEGGPSVFLFPPKPKDTLMISRTPEVTCVVVAVSHEDPEVKFNWYVDGVEVHNAKTKPREEQYNSTYRVVSVLTVLHQDWLNGKEYKCKVSNKALPAPIEKTISKAKGQPREPQVYTLPPSREEMTKNQVSLTCLVKGFYPSDIAVEWESNGQPENNYKTTPPVLDSDGSFFLYSRLTVDKSRWQQGNVFSCSVMHEALHNHYTQKSLSLSPGK
light: SYELTQPPSVSVSPGHTARITCSGDALPKKYASWFQQKSGQAPVLVIYEDSKRPSGIPERFSGSTSGTMATLTISGAQVEDETDYYCYSADTSGTHRVFGGGTKLTVLGQPKAAPSVTLFPPSSEELQANKATLVCLISDFYPGAVTVAWKADSSPVKAGVETTTPSKQSNNKYAASSYLSLTPEQWKSHRSYSCQVTHEGSTVEKTVAPTECS
[14]
  EC50 (read off the curve): ~0.3 µg/mL
[15]
  binding result: no binding
[16]
  binding result: binds

B4: IgG1-421-LC91S-FEAR (antibody, V domains shown)
VH: EVQLVESGGGLVQPGRSLRLSCAASGFTFDDYAMHWVRQGPGKGLEWVSGIRWNSGSMHYADSVKGRFTISRDNAKSSLYLQMNSLRAEDTALYYCARAPWYSGAWHPDYWGQGTLVTVSS
VL: QSALTQPRSVSGSPGQSVTISCTGTSSDVGTYNYVSWYQQHPGKAPKLMIYDVIKRPSGVPDRFSGSKSGNTASLTLSGLQAEDEADYYCSSYAGTYTLLFGGGTKLTVL
PDLoneECDHisCtag [17]
  association response of the second antibody: 0.8 nm
PDLoneECDHisCtag [18]
  association response of the second antibody: 0.6 nm
PDLoneECDHisCtag [2]
  association response of the second antibody: 0 nm
PDLoneECDHisCtag [3]
  association response of the second antibody: 0 nm
PDLoneECDHisCtag [4]
  association response of the second antibody: 0.6 nm
PDLoneECDHisCtag [5]
  association response of the second antibody: 0 nm
PDLoneECDHisCtag [19]
  association response of the second antibody: -0.1 nm
PDLoneECDHisCtag [6]
  association response of the second antibody: 0 nm
PDLoneECDHisCtag [8]
  association response of the second antibody: 0 nm
PDLoneECDHisCtag [9]
  association response of the second antibody: 0 nm

B5: IgG1-632-FEAR (antibody, V domains shown)
VH: QVQLVESGGGLVKPGGSLRLSCAASGFTFSDYYMSWIRQAPGKGLEWVSYIGSSSNTIYYADSVKGRFTISRDNAKNSLYLQMNSLRAEDTAVYSCARDRVKYGSPGSLFDYWGQGTLVTVSS
VL: SYELTQPPSVSVSPGQTARITCSGDALPKKYAFWYQQKSGQAPVLVIYEDSKRPSGIPERFSGSSSGTMATLTISGAQVEDEADYYCYSTASSGDHRVFGGGTKLTVL
PDLoneECDHisCtag [1]
  association response of the second antibody: 1.1 nm
PDLoneECDHisCtag [10]
  association response of the second antibody: 0.7 nm
PDLoneECDHisCtag [11]
  association response of the second antibody: 0 nm
PDLoneECDHisCtag [12]
  association response of the second antibody: 0.2 nm
PDLoneECDHisCtag [13]
  association response of the second antibody: 0 nm
PDLoneECDHisCtag [7]
  association response of the second antibody: 0 nm

From patent publication US20200239579A1 (Genmab, published 2020)
